Measured values reported in patent publication US10077436B2, “Beta-glucosidase enzymes for increased biomass saccharification” (Edeniq, Inc., priority 2013, dated 2018).
Where a chain is given by its changes, count along the chain named. Numbers in names are those of the source.

B1: Aspergillus niger beta-glucosidase (CAB75696.1, SEQ ID NO:2) improved variant yEdQ885-BG (Aspergillus niger; Y363C/Y375F/Y610F) (protein)
chain: DELAYSPPYYPSPWANGQGDWAQAYQRAVDIVSQMTLDEKVNLTTGTGWELELCVGQTGGVPRLGVPGMCLQDSPLGVRDSDYNSAFPAGMNVAATWDKNLAYLRGKAMGQEFSDKGADIQLGPAAGPLGRSPDGGRNWEGFSPDPALSGVLFAETIKGIQDAGVVATAKHYIAYEQEHFRQAPEAQGFGFNISESGSANLDDKTMHELYLWPFADAIRAGAGAVMCSYNQINNSYGCQNSYTLNKLLKAELGFQGFVMSDWAAHHAGVSGALAGLDMSMPGDVDYDSGTSYWGTNLTISVLNGTVPQWRVDDMAVRIMAAYYKVGRDRLWTPPNFSSWTRDECGYKYYYVSEGPFEKVNQYVNVQRNHSELIRRIGADSTVLLKNDGALPLTGKERLVALIGEDAGSNPYGANGCSDRGCDNGTLAMGWGSGTANFPYLVTPEQAISNEVLKHKNGVFTATDNWAIDQIEALAKTASVSLVFVNADSGEGYINVDGNLGDRRNLTLWRNGDNVIKAAASNCNNTIVVIHSVGPVLVNEWYDNPNVTAILWGGLPGQESGNSLADVLYGRVNPGAKSPFTWGKTREAYQDFLVTEPNNGNGAPQEDFVEGVFIDYRGFDKRNETPIYEFGYGLSYTTFNYSNLEVQVLSAPAYEPASGETEAAPTFGEVGNASDYLYPSGLQRITKFIYPWLNGTDLEASSGDASYGQDSSDYLPEGATDGSAQPILPAGGGPGGNPRLYDELIRVSVTIKNTGKVAGDEVPQLYVSLGGPNEPKIVLRQFERITLQPSEETKWSTTLTRRDLANWNVEKQDWEITSYPKMVFVGSSSRKLPLRASLPTVH
notes: strain yEdQ885, BG acid/base mutant #8
B2: Aspergillus niger beta-glucosidase, wild type, yEdQ745-BG (CAB75696.1, SEQ ID NO:2) (Aspergillus niger) (protein)
chain: B1 chain with C344Y, F356Y, F591Y
notes: strain yEdQ745

Columns and labels:
Assay type in all cases: biochemical, Aspergillus niger
[1] = substrate: O=[N+]([O-])c1ccc(O[C@@H]2O[C@H](CO)[C@@H](O)[C@H](O)[C@H]2O)cc1; assay: BG kinetics, pNPG hydrolysis assay with glucose as competitive inhibitor, yEdQ885-BG; details: other: pNPG substrate, pH 5.0, 50° C.
From the text: (§1) The beta-glucosidase (BG) gene from Aspergillus niger (Accession #CAB75696.1) was integrated into the TR3 yeast background at the T4U3 genomic site.
(§2) High resolution enzyme assays and kinetic testing comparing the beta-glucosidases described herein and commercial enzyme preparations were pursued to more clearly quantify differences in mutant BG enzymes compared to the wild type BG enzyme. Based on data presented herein, BG mutant YEdQ885 was selected for further analysis and compared to the BG activity present in commercial preparations of SP188 (Novozymes) and Accellerase® BG (DuPont) as well as wild type BG.
(§3) The kinetic properties of beta glucosidase are important for cellulosic hydrolysis, since in commercial situations a wide range of substrate concentrations and different product inhibition conditions will be encountered. In this example, a Michaelis-Menten kinetics model was used to describe BG kinetics. To determine these kinetic properties, BG activity assays using standard substrates pNPG and cellobiose were employed. yEdQ745-BG (wild type) and yEdQ885-BG (improved), were compared with two commercial BGs, A-BG (Accellerase®) BG from Dupont) and S-BG (Novozymes SP188 from Sigma).
BG activity assay using pNPG is one of the two commonly used standard assays to measure BG activity, which utilizes hydrolysis of p-nitrophenyl-β-D-glucopyranoside (pNPG) by BG into a yellow colored product, p-nitrophenol (pNP), that has a strong absorbance at 405 nm. One pNPG unit is defined as the amount of enzyme that produces 1 μmol of pNP per min. Briefly, to determine BG activity, 25 μL of diluted enzyme in 200 mM sodium acetate buffer (pH 5.0) was mixed with 25 μL of the same buffer and 25 μL of RO water (or glucose solution for the kinetic study) and the mixture was preincubated at 50° C. for 5 min. The reaction was initiated by adding 25 μL of 10 mM pNPG in 200 mM sodium acetate buffer (pH 5.0) and the mixture was incubated at 50° C. for 10 min. The reaction was then terminated by adding 100 μL of 0.25 M sodium carbonate, and the amount of pNP produced was determined by measuring absorbance at 405 nm using a predetermined calibration curve. […]
To determine the kinetic properties, a competitive inhibition mechanism was hypothesized as proposed in the literature (Chauve et al, 2010; Krogh et al, 2010). […] The turnover number, Kcat, can be calculated by Equation (2), where [Et] is the total amount of enzyme.
Conventionally, linearization methods can be used to determine the kinetic parameters based on Equation (1). […] Thus, Vmax, Km and Ki can be determined simultaneously from this fitting process, and Km/Ki can then be calculated. Kcat can be obtained by Equation (2) and Kcat/Km can be calculated accordingly. […]

[2] = substrate: OC[C@H]1O[C@@H](O[C@H]2[C@H](O)[C@@H](O)C(O)O[C@@H]2CO)[C@H](O)[C@@H](O)[C@@H]1O; assay: BG kinetics, cellobiose hydrolysis assay (HPLC) with glucose as competitive inhibitor, yEdQ885-BG; details: other: cellobiose substrate, pH 4.8, 50° C.
From the text: as §1, §2, §3
(§4) BG activity assay using cellobiose is the other standard assay to measure BG or cellobiase activity, which utilizes hydrolysis of cellobiose by cellobiase into two molecules of glucose, the last step of enzymatic hydrolysis of cellulose. One cellobiase unit (commonly termed as CBU) is defined as the amount of enzyme that converts […] of cellobiose or produces 2 μmol of glucose per min. Briefly, to determine BG activity, 25 μL of diluted enzyme in 50 mM citrate buffer (pH 4.8) equilibrated to 50° C. was mixed with 25 μL cellobiose (or cellobiose/glucose mixture for the kinetic study) to start the reaction. The mixture was incubated at 50° C. for 10 min, and the reaction was terminated by incubating the mixture at 99° C. for 5 min. Different methods are available to measure the glucose produced in the assays. For the kinetic study, HPLC was used.
To determine kinetic properties using cellobiose substrate, duplicate assays with cellobiose concentrations ranging from 0.47 to 15 mM and glucose concentrations of 0, 0.9, 4.5, 6.75, and 8.1 (for A-BG) or 9 (for all the other three BGs) g/L were performed. As for pNPG substrate, the range of cellobiose substrate concentration was chosen to show detectable activity at the lowest substrate concentration and saturation stage at high substrate concentration. However, in contrast to the pNPG substrate, when there was still some activity left at glucose concentration up to 36 g/L, most of the BG activity was lost at an inhibitor level of 9 g/L when cellobiose substrate was used. […]

[3] = substrate: O=[N+]([O-])c1ccc(O[C@@H]2O[C@H](CO)[C@@H](O)[C@H](O)[C@H]2O)cc1; assay: BG kinetics, pNPG hydrolysis assay with glucose as competitive inhibitor, yEdQ745-BG; details: other: pNPG substrate, pH 5.0, 50° C.
From the text: (§5) Accordingly, in some embodiments, the unmodified form of the beta-glucosidase is a wild-type or a naturally occurring beta-glucosidase, such as, for example, a fungal beta-glucosidase. The full nucleic acid and amino acid sequence for numerous fungal beta-glucosidases are available. The amino acid sequence of A. niger beta-glucosidase is provided as SEQ ID NO:2. Thus, in some embodiments, the unmodified beta-glucosidase is from an Aspergillus species. In some embodiments, the unmodified beta-glucosidase is from a Trichoderma species.
as §1
(§6) The BG-expressing strains were subsequently used in corn mash and corn stover simultaneous saccharification and fermentation (SSF) studies using flask scale and pilot plant fermentations. A 12-gallon corn stover fermentation was performed at 40° C. in which the beta-glucosidase secreting yeast strain was co-inoculated with three other engineered yeast strains individually expressing endoglucanase II, CBH1, and CBHII. Surviving TR3 Saccharomyces cerevisiae yeast strains individually expressing BG, EGII, CBH1 or CBH2 were recovered by plating onto solid medium. A clonal population of BG-secreting yeast was isolated and the BG gene integration confirmed. This strain is referred to herein as yEdQ745 and comprises the wild-type BG gene. The BG sequence in the Tau3 integration cassette was used for subsequent mutagenesis experiments.
as §3
BG activity assay using pNPG is one of the two commonly used standard assays to measure BG activity, which utilizes hydrolysis of p-nitrophenyl-β-D-glucopyranoside (pNPG) by BG into a yellow colored product, p-nitrophenol (pNP), that has a strong absorbance at 405 nm. One pNPG unit is defined as the amount of enzyme that produces 1 μmol of pNP per min. […] The reaction was then terminated by adding 100 μL of 0.25 M sodium carbonate, and the amount of pNP produced was determined by measuring absorbance at 405 nm using a predetermined calibration curve. […]

[4] = substrate: OC[C@H]1O[C@@H](O[C@H]2[C@H](O)[C@@H](O)C(O)O[C@@H]2CO)[C@H](O)[C@@H](O)[C@@H]1O; assay: BG kinetics, cellobiose hydrolysis assay (HPLC) with glucose as competitive inhibitor, yEdQ745-BG; details: other: cellobiose substrate, pH 4.8, 50° C.
From the text: as §5, §1, §6, §3
as §4, with “The mixture was incubated at 50° C. for 10 min, and the reaction was terminated by incubating the mixture at 99° C. for 5 min. Different methods are available to measure the glucose produced in the assays. For the kinetic study, HPLC was used.” left out

Row | Protein | Km [1] [µM] | Vmax [1] [µmol/min/mg] | kcat [1] [s⁻¹] | kcat/Km [1] [M⁻¹ s⁻¹] | Km [2] [µM] | Vmax [2] [µmol/min/mg] | kcat [2] [s⁻¹] | kcat/Km [2] [M⁻¹ s⁻¹] | Km [3] [µM] | Vmax [3] [µmol/min/mg] | kcat [3] [s⁻¹] | kcat/Km [3] [M⁻¹ s⁻¹] | Km [4] [µM] | Vmax [4] [µmol/min/mg] | kcat [4] [s⁻¹] | kcat/Km [4] [M⁻¹ s⁻¹]
1 | B1 | 640 ± 30 | 6.33 | 12.7 | 19800 | 1450 ± 260 | 11.6 | 23.1 | 16000 | – | – | – | – | – | – | – | –
2 | B2 | – | – | – | – | – | – | – | – | 640 ± 60 | 4.17 | 8.34 | 13000 | 1450 ± 290 | 4.36 | 8.72 | 6010
